Where two headings read alike, the source gives them in different places.

The target in experiment [1] is the antigen (SARS-CoV-2 spike (S) protein, form not stated in Example 13) (SARS-CoV-2) (UniProt P0DTC2).
Experiment [2] has the same target. As to the kind of experiment: SPR relative binding activity; formulation F5, nebulized with Aerogen Solo.
Experiment [3] has the same target. The experiment in a line: SPR relative binding activity; undiluted 50 mg/mL, formulation F5, initial.
Experiment [4] shares this target. As to the kind of experiment: SPR relative binding activity; formulation F5, nebulized with eFlow-Rapid.
The target is the same in experiment [5]. The experiment in a line: SPR relative binding activity; formulation F5, control unnebulized.
The target is the same in experiment [6]. As to the kind of experiment: SPR relative binding activity; undiluted 50 mg/mL, formulation F5, nebulized.
Experiment [7] has the same target. The experiment in a line: SPR relative binding activity; 1:5 diluted 10 mg/mL, formulation F8, initial.
Experiment [8] has the same target. As to the kind of experiment: SPR relative binding activity; undiluted 50 mg/mL, formulation F6, nebulized.
For experiment [9] the target is unchanged. The experiment in a line: SPR relative binding activity; formulation F5, nebulized with Droh.
Experiment [10] shares this target. As to the kind of experiment: SPR relative binding activity; 1:5 diluted 10 mg/mL, formulation F6, initial.
Experiment [11] shares this target. As to the kind of experiment: SPR relative binding activity; 1:5 diluted 10 mg/mL, formulation F7, nebulized.
For experiment [12] the target is unchanged. As to the kind of experiment: SPR relative binding activity; 1:5 diluted 10 mg/mL, formulation F8, nebulized.
The target is the same in experiment [13]. The experiment in a line: SPR relative binding activity; 1:5 diluted 10 mg/mL, formulation F5, nebulized.
For experiment [14] the target is unchanged. As to the kind of experiment: SPR relative binding activity; undiluted 50 mg/mL, formulation F8, initial.
The target is the same in experiment [15]. The experiment in a line: SPR relative binding activity; 1:5 diluted 10 mg/mL, formulation F7, initial.
Experiment [16] has the same target. The experiment in a line: SPR relative binding activity; reference standard, initial.
The target is the same in experiment [17]. The experiment in a line: SPR relative binding activity; undiluted 50 mg/mL, formulation F8, nebulized.
The target is the same in experiment [18]. As to the kind of experiment: SPR relative binding activity; formulation F5, nebulized with Pariboy.
Experiment [19] shares this target. As to the kind of experiment: SPR relative binding activity; undiluted 50 mg/mL, formulation F7, nebulized.
For experiment [20] the target is unchanged. The experiment in a line: SPR relative binding activity; undiluted 50 mg/mL, formulation F6, initial.
The target is the same in experiment [21]. As to the kind of experiment: SPR relative binding activity; 1:5 diluted 10 mg/mL, formulation F5, initial.
For experiment [22] the target is unchanged. As to the kind of experiment: SPR relative binding activity; 1:5 diluted 10 mg/mL, formulation F6, nebulized.
For experiment [23] the target is unchanged. The experiment in a line: SPR relative binding activity; undiluted 50 mg/mL, formulation F7, initial.

Chain of DZIF-10c (antibody) (VH): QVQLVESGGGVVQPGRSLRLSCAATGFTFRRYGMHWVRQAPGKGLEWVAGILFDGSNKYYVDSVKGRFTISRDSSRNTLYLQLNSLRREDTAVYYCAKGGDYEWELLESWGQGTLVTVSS
Chain of DZIF-10c (antibody) (VL): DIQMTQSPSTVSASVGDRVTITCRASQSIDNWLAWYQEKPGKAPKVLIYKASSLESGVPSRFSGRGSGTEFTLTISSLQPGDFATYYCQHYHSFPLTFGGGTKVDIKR

With DZIF-10c (antibody), the SPR Binding Activity (RLCA %) turned out to be 100% in [1]; 100% in [2]; 96% in experiment [3]; 100% in experiment [4]; 100% in experiment [5]; 96% in experiment [6]. The SPR Binding Activity (RLCA %) in experiment [7] amounted to 96%; in [8], 96%; in experiment [9], 100%; in [10], 96%; in [11] it was 96%; in experiment [12], 96%. The SPR Binding Activity (RLCA %) was determined as 96% in experiment [13]; 96% in experiment [14]; 96% in experiment [15]; 100% in [16]; 96% in [17]; 100% in experiment [18]. Further, the SPR Binding Activity (RLCA %) in experiment [19] is 96%; in experiment [20], 95%; in experiment [21] it was 96%; in experiment [22], 96%; in experiment [23] it was 96%.

The values are drawn from patent publication US20210371503A1.
